Usually Kd stands for the constant that tells how readily two partners part at equilibrium. A low value points to a tighter complex.

Here are results for seven molecules from doi:10.1101/2021.10.11.463904 (bioRxiv, 2021).

Data set [1] deals with FITC-Mature-1cys (Mus musculus) (UniProt P09535). Briefly: fluorescence polarisation.
Data set [2] shares this target. As to the kind of experiment: fluorescence polarisation. This is another data set of the same source. (Polarisation of emitted light reports the rotation of a fluorescent probe.)
Data set [3] addresses T1, BiP (UniProt P20029 20-655). Briefly: fluorescence polarisation.
The target in data set [4] is T1, BiP. Briefly: fluorescence polarisation. The source holds these as a separate data set.
For data set [5], the target named is T1, BiP. As to the kind of experiment: fluorescence polarisation. This is another data set of the same source.
A further data set concerns the target BSA (bovine (from the name BSA), UniProt P02769 25-607). Briefly: fluorescence polarisation.
The data set “dynamic light scattering” concerns the molecule itself. As to the kind of experiment: dynamic light scattering.

Where two headings read alike, the source gives them in different places. Ends that are not written are not given here. * marks the point of attachment. FITC = O=C1OC2(c3ccc(O)cc3Oc3cc(O)ccc32)c2ccc(NC(=S)*)cc21; Ahx = NCCCCCC(=O)O

T1 sequence (P20029 20-655): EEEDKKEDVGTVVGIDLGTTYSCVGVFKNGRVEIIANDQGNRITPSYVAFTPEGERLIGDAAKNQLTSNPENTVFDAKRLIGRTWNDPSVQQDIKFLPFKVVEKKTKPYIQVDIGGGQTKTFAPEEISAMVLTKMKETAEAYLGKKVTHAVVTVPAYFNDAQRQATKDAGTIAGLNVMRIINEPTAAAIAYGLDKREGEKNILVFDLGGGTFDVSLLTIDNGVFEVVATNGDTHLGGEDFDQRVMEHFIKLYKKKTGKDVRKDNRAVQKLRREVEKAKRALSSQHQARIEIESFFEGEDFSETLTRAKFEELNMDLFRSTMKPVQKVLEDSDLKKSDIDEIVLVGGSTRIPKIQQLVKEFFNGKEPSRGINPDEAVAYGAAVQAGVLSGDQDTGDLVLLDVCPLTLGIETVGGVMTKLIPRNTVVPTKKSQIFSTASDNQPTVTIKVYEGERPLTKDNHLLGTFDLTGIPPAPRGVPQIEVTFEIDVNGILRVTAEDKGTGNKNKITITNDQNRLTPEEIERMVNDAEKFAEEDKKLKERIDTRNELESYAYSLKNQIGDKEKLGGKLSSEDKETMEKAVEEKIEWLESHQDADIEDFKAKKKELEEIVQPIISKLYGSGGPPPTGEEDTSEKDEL
FITC-Mature-1cys (Mus musculus), sequence (P09535 25-91): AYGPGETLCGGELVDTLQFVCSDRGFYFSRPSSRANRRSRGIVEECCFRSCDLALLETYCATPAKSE
BSA, sequence (P02769 25-607): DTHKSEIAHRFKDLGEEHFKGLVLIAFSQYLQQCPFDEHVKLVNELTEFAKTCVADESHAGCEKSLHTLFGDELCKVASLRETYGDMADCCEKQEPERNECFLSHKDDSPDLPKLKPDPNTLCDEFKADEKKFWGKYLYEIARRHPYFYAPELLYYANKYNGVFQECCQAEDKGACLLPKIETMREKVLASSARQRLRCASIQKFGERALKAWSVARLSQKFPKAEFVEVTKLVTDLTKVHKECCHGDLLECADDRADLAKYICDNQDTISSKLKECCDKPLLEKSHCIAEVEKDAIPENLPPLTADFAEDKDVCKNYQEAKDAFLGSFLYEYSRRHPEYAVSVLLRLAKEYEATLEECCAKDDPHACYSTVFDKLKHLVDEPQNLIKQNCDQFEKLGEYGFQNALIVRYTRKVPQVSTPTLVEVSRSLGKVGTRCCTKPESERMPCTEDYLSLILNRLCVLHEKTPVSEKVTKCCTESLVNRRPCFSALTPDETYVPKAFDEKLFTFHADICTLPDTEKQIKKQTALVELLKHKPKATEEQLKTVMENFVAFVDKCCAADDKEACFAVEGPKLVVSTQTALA

As to “BiP (from UniProt P20029 20-655) (natural protein)”, the Kd in data set [1] stood at 2.7 µM; in data set [2] it was 9.7 µM.
Take RDVC(FITC‑maleimide)TSQAVLPDDFPRYPVGKFFQYDTWRQSAGRLRRGLPALLRARRG (domain or fragment) [FITC-E-peptide 92-139]: the results for the equilibrium dissociation constant (Kd) with BiP [3] and in the data set with BiP [4] were 0.52 ± 0.13 µM and 1.9 ± 0.6 µM, respectively.
In the case of {FITC-Ahx}-DDFPRYPVGKFFQYDTWR [FITC-E-peptide 103-120], the equilibrium dissociation constant (Kd) turned out to be 0.46 ± 0.05 µM with BiP [5], 13 ± 2 µM with BSA, 0.95 ± 0.17 µM in the data set with BiP [3] and 13 ± 2 µM in the data set with BiP [4].
For the molecule RDVC(FITC‑maleimide)TSQAVLPDDFPRYPVGKFFQYDTWR (domain or fragment) [FITC-E-peptide 92-120], the Kd came to 0.67 ± 0.17 µM in the data set with BiP [3] and 8 ± 3.8 µM in the data set with BiP [4].
As to {FITC-Ahx}-QSAGRLRRGLPALLRARRG [FITC-E-peptide 121-139], in the data set with BiP [3], binding was put at a Kd of 5.3 ± 0.6 µM.

B1: E-peptide (domain or fragment)
chain: RDVCTSQAVLPDDFPRYPVGKFFQYDTWRQSAGRLRRGLPALLRARRGRMLAKELKEFREAKRHRPLIVLPPKDPAHGGASSEMSSNHQ
As for B1, in the data set “dynamic light scattering”, the binding result is “binds”.
Take {FITC-Ahx}-EAKRHRPLIVLPPKDPAHG [FITC-E-peptide 151-169]: in the data set with BiP [3], the affinity, expressed as Kd, was 15 ± 1 µM.
